US20250250314A1 (XILIO DEVELOPMENT, published 2025)
Where a chain is given by its changes, count along the chain named. One block for each binder: values may come before it.

Molecular target: PD-1 from the PD-1 effector cells (UniProt Q15116 25-288, limits assumed)
Assay: cell-based or functional assay

Chain of PD-1 from the PD-1 effector cells (Q15116 25-288 limits assumed): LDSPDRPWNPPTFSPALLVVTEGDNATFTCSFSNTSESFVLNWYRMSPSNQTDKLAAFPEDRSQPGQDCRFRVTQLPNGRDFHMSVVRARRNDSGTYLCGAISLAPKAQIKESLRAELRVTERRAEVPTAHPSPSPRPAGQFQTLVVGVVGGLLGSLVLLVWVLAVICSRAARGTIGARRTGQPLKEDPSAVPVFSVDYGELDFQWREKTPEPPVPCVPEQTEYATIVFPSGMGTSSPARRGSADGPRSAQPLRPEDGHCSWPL

EC50 (nM), fold induction of luminescence in the PD-1/PD-L1 Blockade Bioassay: 1.36 nM
B1: UCM7 (other)
heavy 1: QVQLVQSGVEVKKPGASVKVSCKASGYTFTNYYMYWVRQAPGQGLEWMGGINPSNGGTNFNEKFKNRVTLTTDSSTTTAYMELKSLQFDDTAVYYCARRDYRFDMGFDYWGQGTTVTVSSASTKGPSVFPLAPSSKSTSGGTAALGCLVKDYFPEPVTVSWNSGALTSGVHTFPAVLQSSGLYSLSSVVTVPSSSLGTQTYICNVNHKPSNTKVDKKVEPKSCDKTHTCPPCPAPELLGGPSVFLFPPKPKDTLMISRTPEVTCVVVDVSHEDPEVKFNWYVDGVEVHNAKTKPREEQYASTYRVVSVLTVLHQDWLNGKEYKCKVSNKALPAPIEKTISKAKGQPREPQVYTLPPCRDELTKNQVSLWCLVKGFYPSDIAVEWESNGQPENNYKTTPPVLDSDGSFFLYSKLTVDKSRWQQGNVFSCSVMHEALHNRFTQKSLSLSPGGGSSPPGGGSSGGGSGPAPTSSSTKKTQLQLEHLLLDLQMILNGINNYKNPKLTAMLTAKFAMPKKATELKHLQCLEEALKPLEEVLNLAQSKNFHLRPRDLISNINVIVLELKGSETTFMCEYADETATIVEFLNRWITFAQSIISTLT
heavy 2: QVQLVQSGVEVKKPGASVKVSCKASGYTFTNYYMYWVRQAPGQGLEWMGGINPSNGGTNFNEKFKNRVTLTTDSSTTTAYMELKSLQFDDTAVYYCARRDYRFDMGFDYWGQGTTVTVSSASTKGPSVFPLAPSSKSTSGGTAALGCLVKDYFPEPVTVSWNSGALTSGVHTFPAVLQSSGLYSLSSVVTVPSSSLGTQTYICNVNHKPSNTKVDKKVEPKSCDKTHTCPPCPAPELLGGPSVFLFPPKPKDTLMISRTPEVTCVVVDVSHEDPEVKFNWYVDGVEVHNAKTKPREEQYASTYRVVSVLTVLHQDWLNGKEYKCKVSNKALPAPIEKTISKAKGQPREPQVCTLPPSRDELTKNQVSLSCAVKGFYPSDIAVEWESNGQPENNYKTTPPVLDSDGSFFLVSKLTVDKSRWQQGNVFSCSVMHEALHNHYTQKSLGGPLGLGGSSGSGGSGGGSGSGGGEVQLVESGGGLVQPGGSLRLSCAASGSIFSINVMGWYRQAPGKQRELVAAISSGGSTNYADSVKGRFTISRDNAKNTVYLQMNSLKPEDTAVYYCMYASSWYEDETDYWGQGTQVTVSS
light: EIVLTQSPATLSLSPGERATLSCRASKGVSTSGYSYLHWYQQKPGQAPRLLIYLASYLESGVPARFSGSGSGTDFTLTISSLEPEDFAVYYCQHSRDLPLTFGGGTKVEIKRTVAAPSVFIFPPSDEQLKSGTASVVCLLNNFYPREAKVQWKVDNALQSGNSQESVTEQDSKDSTYSLSSTLTLSKADYEKHKVYACEVTHQGLSSPVTKSFNRGEC

EC50 (nM), fold induction of luminescence in the PD-1/PD-L1 Blockade Bioassay: 1.2 nM
B2: UCM6 (other)
heavy 1: B1 heavy 1
heavy 2: B1 heavy 2 with Q441P, K442A, S443N, G445V, G446A, L448D, G449P, L450G
light: B1 light

EC50 (nM), fold induction of luminescence in the PD-1/PD-L1 Blockade Bioassay: 0.84 nM
B3: UCM2 (other)
heavy 1: B1 heavy 1
heavy 2: B1 heavy 2 with G445S, G446L
light: B1 light

EC50 (nM), fold induction of luminescence in the PD-1/PD-L1 Blockade Bioassay: 1.09 nM
B4: UCM8 (other)
heavy 1: B1 heavy 1
heavy 2: QVQLVQSGVEVKKPGASVKVSCKASGYTFTNYYMYWVRQAPGQGLEWMGGINPSNGGTNFNEKFKNRVTLTTDSSTTTAYMELKSLQFDDTAVYYCARRDYRFDMGFDYWGQGTTVTVSSASTKGPSVFPLAPSSKSTSGGTAALGCLVKDYFPEPVTVSWNSGALTSGVHTFPAVLQSSGLYSLSSVVTVPSSSLGTQTYICNVNHKPSNTKVDKKVEPKSCDKTHTCPPCPAPELLGGPSVFLFPPKPKDTLMISRTPEVTCVVVDVSHEDPEVKFNWYVDGVEVHNAKTKPREEQYASTYRVVSVLTVLHQDWLNGKEYKCKVSNKALPAPIEKTISKAKGQPREPQVCTLPPSRDELTKNQVSLSCAVKGFYPSDIAVEWESNGQPENNYKTTPPVLDSDGSFFLVSKLTVDKSRWQQGNVFSCSVMHEALHNHYTQKSLSLPLGLGGSSGSGGSGGGSGSGGGSGGSGGEVQLVESGGGLVQPGGSLRLSCAASGSIFSINVMGWYRQAPGKQRELVAAISSGGSTNYADSVKGRFTISRDNAKNTVYLQMNSLKPEDTAVYYCMYASSWYEDETDYWGQGTQVTVSS
light: B1 light

EC50 (nM), fold induction of luminescence in the PD-1/PD-L1 Blockade Bioassay: 1.15 nM
B5: UCM5 (other)
heavy 1: B1 heavy 1
heavy 2: B1 heavy 2 with Q441A, K442P, S443A, L444G, G445L, G446I, P447V, L448P, G449Y, L450N
light: B1 light

EC50 (nM), fold induction of luminescence in the PD-1/PD-L1 Blockade Bioassay: 1.28 nM
B6: UCM4 (other)
heavy 1: B1 heavy 1
heavy 2: B1 heavy 2 with S443M, L444P, G445Y, G446D, P447L, L448Y, G449H, L450P
light: B1 light
